# Values quoted from earlier work as cited in publication PMC6387150.
# Molecular target: IL-18 (Homo sapiens) (UniProt Q14116)
# Sequence (Q14116 37-193): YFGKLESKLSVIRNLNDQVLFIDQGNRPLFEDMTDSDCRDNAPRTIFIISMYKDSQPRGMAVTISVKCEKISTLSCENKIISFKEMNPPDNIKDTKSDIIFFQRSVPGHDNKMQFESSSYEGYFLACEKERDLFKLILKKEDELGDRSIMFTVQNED
# Chain of IL-18BP (O95998 31-194): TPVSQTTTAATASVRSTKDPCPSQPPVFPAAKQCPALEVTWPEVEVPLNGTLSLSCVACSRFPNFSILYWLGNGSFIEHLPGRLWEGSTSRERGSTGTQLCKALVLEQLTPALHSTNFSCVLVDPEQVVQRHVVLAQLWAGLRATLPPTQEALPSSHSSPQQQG
substance,measurement,value
IL-18BP (from UniProt O95998),Kd,0.4 nM
